According to patent US20180335433A1, “COMPOSITIONS TARGETING PKC-THETA AND USES AND METHODS OF TREATING PKC-THETA PATHOLOGIES, ADVERSE IMMUNE RESPONSES AND DISEASES” (La Jolla Institute for Allergy and Immunology, priority 2011, published 2018):

Tests used:
[1] = test system: Naïve CD4+ T cells from B6 mice, Th9 cells; assay: In vitro Th9 differentiation of retrovirally transduced CD4+ T cells; type: cell-based, mouse; settings: Th9-polarizing conditions (IL-4+TGFβ), IL-9-producing cells
Protocol: Naïve CD4^+ T cells from B6 mice stimulated with anti-CD3 plus anti-CD28 mAbs and differentiated in vitro under Th9-polarizing conditions (IL-4+TGFβ) were retrovirally transduced with empty pMIG vector, or with the indicated PKCθ V3 vectors. Transduced (GFP+) cells were sorted and IL-9-producing cells were analyzed by intracellular staining 8 h after restimulation. Cumulative data showing percentage of cytokine-producing. V3-4PA refers to mutation of 4 Pro residues in the Pro-rich motif to Ala and V3-DPR refers to deletion of the Pro-rich motif (ARPPCLPTP).
Th9 cells have been reported to play an important role in promoting allergic diseases such as asthma (J. Asthma 48:115, 2011; Curr. Opin. Immunol. 24:1, 2012. These findings indicate that allergic disease such as asthma can be treated in accordance with the invention.

[2] = test system: Th1-mediated lung inflammation; assay: Th1-mediated Ova-induced airway inflammation after adoptive transfer of transduced Th1 effector cells; type: in vivo, mouse; settings: transferred Th1 effector cells
Description: (FIG. 7A-7D) OT-II CD4^+ T cells stimulated with anti-CD3 plus anti-CD28 mAbs and differentiated in vitro under Th2 (FIG. 7A-7C) or Th1 (FIG. 7D, 7E)-polarizing conditions were retrovitrally transduced with the same PKCθ V3 vectors as in FIG. 6. Sorted GFP^+ populations were adoptively transferred into naïve B6 mice, which were challenged with aerosolized Ova for 3 consecutive days. BAL fluid were obtained 1 d post-challenge and analyzed for total mononuclear cell infiltration (FIG. 7A, 7D) and cytokine expression using IL-4 (FIG. 7B), IL-5 (FIG. 7C) and IFN-γ (FIG. 7E) ELISA.
CD4^+ T cells from OT-II B6 mice were isolated and cultured with plate-bound anti-CD3 (5 μg/ml), soluble anti-CD28 (2.5 μg/ml) and IL-2 (100 U/ml) under Th1 or Th2 polarizing conditions. The cells were retrovirally infected on days 2-4 and cultured for an additional 3 days. GFP^+ cells were sorted, and 1×10^6 cells were injected intravenously into naïve WT B6 mice. One day later, mice received aerosolized Ova (5 mg/ml in 20 ml PBS) for 30 min, once a day for 3 consecutive days, using ultrasonic nebulization. Mice were sacrificed 24 h after the last challenge and assessed for lung inflammation. Collection of BAL fluid and determination of cytokine levels were carried out as described (Salek-Ardakani, S. et al. J Immunol 173, 6440-6447 (2004)).

B1: V3 domain: amino acid 282-379 of human PKCθ with N-terminal Myc tag, expressed from pMIG retroviral vector (protein)
chain: GINQKLMAEALAMIESTQQARCLRDTEQIFREGPVEIGLPCSIKNEARPPCLPTPGKREPQGISWESPLDEVDKMCHLPEPELNKERPSLQIKLKIED
modifications: left off: small tags and cut ends
notes: amino acid 282-379 of human PKCθ with N-terminal Myc tag, expressed from pMIG retroviral vector
With B1 the “effect on differentiation of Th9 cells” value [1] was “interferes” and the “inhibition of the Th1 lung inflammation response (leukocyte infiltration, IFN-γ in BAL fluid)” value [2] was “did not inhibit”.
